Patent US20230159613A1 (published 2023)

T1: KRAS G12V peptide on HLA-A*11:01 (human)
T1 peptide: VVGAVGVGK

T2: KRAS G12D peptide on HLA-A*11:01 (human)
T2 peptide: VVGADGVGK

T3: KRAS (short peptide without mutation) peptide on HLA-A*11:01 (human)
T3 peptide: VVGAGGVGK

T4: other antigen short peptide (source not named) peptide on HLA-A*11:01 (human)
T4 peptide: SSCSSCPLSK

T5: KRAS G12D peptide on HLA-A*11:01 (human)
T5 peptide: VVVGADGVGK

T6: KRAS G12V peptide on HLA-A*11:01 (human)
T6 peptide: VVVGAVGVGK

T7: KRAS (short peptide without mutation) peptide on HLA-A*11:01 (human)
T7 peptide: VVVGAGGVGK


Key:
[1] = target: T1, KRAS G12V peptide on HLA-A*11:01; test: Kd or kinetics
[2] = target: T2, KRAS G12D peptide on HLA-A*11:01; test: cytokine release
[3] = target: T3, KRAS (short peptide without mutation) …; test: cytokine release
[4] = target: T4, other antigen short peptide (source not …); test: cytokine release
[5] = target: T5, KRAS G12D peptide on HLA-A*11:01; test: cytokine release
[6] = target: T6, KRAS G12V peptide on HLA-A*11:01; test: cytokine release
[7] = target: T7, KRAS (short peptide without mutation) …; test: cytokine release

| Binder | binding result [1] | binding result [2] | binding result [3] | binding result [4] | binding result [5] | binding result [6] | binding result [7] |
| --- | --- | --- | --- | --- | --- | --- | --- |
| KRAS G12V antigen short peptide-specific TCR of SEQ ID NOs 1 and 5 (TCR, V domains shown) Valpha: QKEVEQNSGPLSVPEGAIASLNCTYSDRVSQSFFWYRQYSGKSPELIMSIYSNGDKEDGRFTAQLNKASQYVSLLIRDSQPSDSATYLCASLKGNNDMRFGAGTRLTVKP Vbeta: GAGVSQSPRYKVAKRGQDVALRCDPISGHVSLFWYQQALGQGPEFLTYFQNEAQLDKSGLPSDRFFAERPEGSVSTLKIQRTQQEDSAVYLCASSSSRWEQQFFGPGTRLTVL | recognises | no recognition | no recognition | no recognition | no recognition | recognises | no recognition |
| KRAS G12V antigen short peptide-specific soluble single chain TCR of SEQ ID NO 30 (TCR, V domains shown) Valpha: QKEVEQNSGPLSVPEGENVSINCTYSDRVSQSFFWYRQYSGKSPELIMSIYSNGDKEDGRFTAQLNKASQYVSLEIRDVQPSDSATYLCASLKGNNDMRFGAGTRLTVKP Vbeta: GAGVSQSPRYLSVKRGQDVTLRCDPISGHVSLFWYQQAPGQGPEFLTYFQNEAQLDKSGLPSDRFNAERPEGSVSTLKIQRVQPEDSAVYLCASSSSRWEQQFFGPGTRLTVD | recognises |  |  |  |  |  |  |
